{"source": "patent US11407840B2", "about": "“Antibodies to M(H)DM2/4 and their use in diagnosing and treating cancer” (NomoCan Pharmaceuticals LLC, priority 2017, dated 2022)", "tested_on": "mouse pancreatic cancer Panc-2 cells (subcutaneous tumors)", "test": "Panc-2 syngeneic mouse model of pancreatic cancer", "type": "in vivo, mouse (C57BL/6)", "protocol": "Methodology used (Syngeneic Mouse Models of lung, colon and pancreatic cancer): To investigate the anti-tumor effects of HDM2-specific antibodies on lung, colon and pancreatic tumors in vivo, three well-known syngeneic mouse models of lung, colon and pancreatic cancer were used (Sharma et al, 1999, J. Immunol. 163 (9):5020-5028; McIntyre, 2015, Bioassays 37(8):909-920; Li, et al, 2015, Sci. Rep. 5:7856). Subcutaneous tumors were prepared by implanting either mouse Lewis Lung cancer LL/2 cells (2.5×10^5 cells/mouse), mouse colon cancer MC-38 cells (5×10^5 cells/mouse) or mouse pancreatic cancer Panc-2 cells (2×10^6 cells/mouse) in the right flanks of 8-week-old female C57BL/6 mice (n=6-7). The mice were returned to their respective cages after tumor implantation. From day 7 after tumor implantation, the tumor volumes were measured 2 times/week with a digital caliper. In the case of MC-38 and Panc-2 study, treatment started when the tumors reached an average of 70-80 mm^3. In the case of LL/2 study, tumor cell inoculation and treatment were initiated simultaneously. Mice were micro-chipped and registered following tumor implantation. […] All tumors were injected subcutaneously and all treatments were performed by intraperitoneal injection. Any mouse displaying prolonged adverse clinical signs, or with body weight loss exceeding 15% relative to body weight at day 0, was euthanized.\nThe efficacy of FIDM2-specific antibody treatment and standard of care chemotherapy was further compared. […] As shown in the tumor volume graph of FIG. 19, when tumors in mice reached approximately 70 mm^3, mice were divided into 4 groups (n=6) that received: A) isotype control mouse IgG1 (2 mg/kg); B) low dose Gemcitabine (25 mg/kg) and nab-Paclitaxel (5 mg/kg); C) NMC-103 (2 mg/kg); or D) a combination of low dose Gemcitabine (25 mg/kg), nab-Paclitaxel (5 mg/kg) and NMC-103 (2 mg/kg). All drugs were injected intraperitoneally 2 times a week for 3 weeks. After receiving the 6th dose on day 19, treatments were stopped for 2 weeks.\nThe anti-tumor efficacy of NMC-103 and of its combination with pancreatic cancer standard of care treatment Gemcitabine (G) and nab-Paclitaxel (nP) was further evaluated in vivo utilizing the Panc-2 syngeneic mouse model of pancreatic cancer discussed above.\nAll drugs were injected intraperitoneally 2 times a week for 4 weeks.\nThe mice were then randomly divided in 2 groups that received a single dose of: A) isotype control mouse IgG1 (10 mg/kg) or B) NMC-103 (10 mg/kg).", "data": [{"molecule": "NMC-103: mouse monoclonal antibody, IgG1 isotype, binds NMC-P1 (SEQ ID NO:1); VH SEQ ID NO:36, VL SEQ ID NO:37 (antibody, V domains shown, mAb NMC-103 Heavy Chain Variable Region; mAb NMC-103 Light Chain Variable Region) VH: EVQLQESGGGLVQPGGSLRLSCTTSGFTFTHYYMSWVRQPPGKALEWLGFIRNKAKGYTAEYSASVKGRFTISRDNSQSILYLQMNTLRPEDSATYYCARDIGDNWGQGTLVTVSS VL: DIVMTQAAFSNPVTLGTSASISCRSSKNLLHSNGITYLYWYLQRPGQSPQLLISRVSNLASGVPNRFSGSESGTDFTLRISRVEAEDVGVYFCAQLLELPYTFGGGTKLEIK", "values": [{"measurement": "tumor size 6 days after a single i.p. injection", "setting": "10 mg/kg single dose after 19 days of Gemcitabine 25 mg/kg + nab-Paclitaxel 5 mg/kg, from 438 mm^3, FIG. 30", "value": 233, "unit": "mm^3"}, {"measurement": "Kaplan Meier survival analysis versus chemotherapy alone or control antibody", "setting": "conditions of FIG. 27, FIG. 28", "value": "significant survival benefit"}, {"measurement": "average tumor size / measurement", "setting": "day 34, NMC-103 10 mg/kg, Gemcitabine 25 mg/kg, nab-Paclitaxel 5 mg/kg i.p. 2 times a week for 4 weeks, surviving mice, NMC-103 group values ascribed to scars and inflammation, FIG. 27", "value": 230, "unit": "mm^3"}, {"measurement": "average tumor volume", "setting": "day 35, i.p. 2 times a week for 3 weeks (6th dose day 19), then 2 weeks off, antibody 2 mg/kg, Gemcitabine 25 mg/kg, nab-Paclitaxel 5 mg/kg, start approx 70 mm^3, n=6, FIG. 19", "value": 1523, "unit": "mm^3"}, {"measurement": "tumor growth during 4 further weeks without drug treatment (to day 62)", "setting": "groups C (n=8) and D (n=7) of FIG. 27", "value": "no sign of tumor growth beyond the initial scar size"}, {"measurement": "tumor 10 days after re-challenge with Panc-2 cells", "setting": "re-challenge at day 62, 2×10^6 cells/mouse s.c. left dorsal flank, previously treated mice of FIG. 27, FIG. 29", "value": "no tumor was observed"}]}]}
